Source: patent US20240287172A1 (SCIRHOM, published 2024)

B1: antibody 51 (antibody, V domains shown)
VH: QVQLQQSGAELVKPGASVKISCKASGYTFSNYWMNWVKQRPGKGLEWIGQIYPGDGDTKYNGKFKNKATLTADKSSSTAYMQFSSLTSEDSAVYFCARGDLVFVYWGLGTLVTVSA
VL: DVQITQSPSYLAVSPGETITINCRASKNIRKYLAWYQEKPGKTNKLLIYSGSTSQSGVPSRFSGSGSGTDFTLTISSLEPEDFAMYYCQQHNEYPYTFGGGTKLEIK
notes: mouse IgG, kappa light chain; also called clone #51
B2: antibody 47 (antibody, V domains shown)
VH: QVQLQQSGAELVRPGTSVKVSCKASGYAFTNYLIEWVKQRPGQGLEWIGVINPGSGFTNYNEKFKGKAILNADKSSSTAYMQLISLTSEDSAVYFCARDLKRAMDHWGQGTSVTVSS
VL: DIQMTQSPASQSASLGESVTITCLASQTIGTWLAWYQQKPGKSPQLLIHAATSLADGVPSRFSGSGSGTKFSFKISSLQAEDFVSYYCQQIYSSPYTFGGGTKLEIK
notes: mouse IgG, kappa light chain; also called clone #47

Target: T1, hiR2-FL-WT-FLAG (human, UniProt Q6PJF5 1-856)
T1 construct: on MEF-DKO cells
T1 sequence: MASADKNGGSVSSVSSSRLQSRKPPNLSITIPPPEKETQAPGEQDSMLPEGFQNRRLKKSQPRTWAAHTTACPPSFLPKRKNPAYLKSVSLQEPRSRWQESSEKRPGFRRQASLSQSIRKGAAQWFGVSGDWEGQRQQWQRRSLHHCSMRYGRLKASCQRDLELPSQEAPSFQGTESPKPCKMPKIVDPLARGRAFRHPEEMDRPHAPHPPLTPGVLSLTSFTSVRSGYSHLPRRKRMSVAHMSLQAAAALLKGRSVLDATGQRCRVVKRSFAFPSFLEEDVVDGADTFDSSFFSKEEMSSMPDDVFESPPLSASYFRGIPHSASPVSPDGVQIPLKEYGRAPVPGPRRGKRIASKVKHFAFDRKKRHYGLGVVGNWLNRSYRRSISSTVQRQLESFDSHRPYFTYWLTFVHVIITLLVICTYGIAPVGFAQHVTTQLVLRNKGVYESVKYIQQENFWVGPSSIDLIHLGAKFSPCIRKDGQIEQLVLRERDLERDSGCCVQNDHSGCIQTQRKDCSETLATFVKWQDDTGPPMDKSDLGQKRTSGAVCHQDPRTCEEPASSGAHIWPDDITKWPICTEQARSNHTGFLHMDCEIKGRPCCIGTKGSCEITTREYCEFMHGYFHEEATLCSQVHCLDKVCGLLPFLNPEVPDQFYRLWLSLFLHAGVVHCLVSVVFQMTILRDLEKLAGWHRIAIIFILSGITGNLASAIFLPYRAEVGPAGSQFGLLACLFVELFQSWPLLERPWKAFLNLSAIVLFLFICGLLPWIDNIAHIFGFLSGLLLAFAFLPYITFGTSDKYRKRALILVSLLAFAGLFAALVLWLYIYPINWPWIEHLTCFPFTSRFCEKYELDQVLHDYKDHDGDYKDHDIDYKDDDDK
Experiment: FACS, MEF-DKO-hiR2-FL-WT-FLAG cells, 3 µg/ml
Experimental: In brief, immortalized MEF-DKO-EV control cells, MEF-DKO-hiR2-FL-WT-FLAG cells and MEF-DKO-miR2-FL-WT-FLAG cells were harvested with 10 mM EDTA in PBS, washed and resuspended in FACS buffer (PBS, 3% FBS, 0.05% sodium azide), and seeded in Nunc U-bottom 96-well plates (Thermo Fisher Scientific, USA) at approximately 3×10⁵ cells per well. To pellet cells and remove supernatants, the plates were centrifuged at 1,500 rpm and 4° C. for 3 minutes. For primary staining, cells were resuspended in 100 μl per well of either FACS buffer alone (controls), mouse monoclonal anti-FLAG IgG (Sigma-Aldrich, USA) at 3 μg/ml FACS buffer or the antibodies of the invention also at 3 μg/ml FACS buffer and incubated on ice for 1 hour. Afterwards, plates were centrifuged at 1,500 rpm and 4° C. for 3 minutes and washed twice with 200 μl per well of FACS buffer. For secondary staining, cells were spun down and resuspended in 100 μl per well of PE-conjugated goat anti-mouse IgG F(ab′)2 detection fragment (Dianova, Germany) diluted 1:100 in FACS buffer. Protected from light, the cell suspensions were incubated on ice for 1 hour. Plates were then centrifuged at 1,500 rpm and 4° C. for 3 minutes and washed three times with 200 μl per well of FACS buffer. Finally, cells were resuspended in 150 μl per well of FACS buffer and analyzed using a BD Accuri™ C6 Plus flow cytometer (Becton Dickinson, Germany).

| Binder | binding result |
| --- | --- |
| B1 | binds |
| B2 | binds |
